US20240043507A1 (RQ BIOTECHNOLOGY, published 2024)

B1: mAb 45 (antibody, V domains shown)
VH: QVQLVESGGGVVQPGRSLRLSCAASGFTFSTYAMHWVRQAPGKGLEWVAVLSYDGSNKYYADSVKGRFTISRDNSKNTLYLQMNSLRAEDTAVYYCAKGGSYAYYYYMDVWGKGTTVTVSS
VL: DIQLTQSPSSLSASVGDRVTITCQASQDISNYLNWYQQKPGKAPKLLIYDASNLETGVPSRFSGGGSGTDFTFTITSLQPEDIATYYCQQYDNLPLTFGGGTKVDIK
notes: also called antibody 45
B2: mAb 175 (antibody, V domains shown)
VH: EVQLVESGGGLIQPGGSLRLSCAASGLTVSRNYMSWVRQAPGKGLEWVSLIYSGGSTYYADSVKGRFTISRDNSKNTLYLQMNSLRAEDTAVYYCARDLRGEVWGQGTMVTVSS
VL: not shown
B3: mAb 222 (antibody, V domains shown)
VH: EVQLVESGGGLIQPGGSLRLSCAASGLTVSSNYMSWVRQAPGKGLEWVSVIYSGGSTFYADSVKGRFTISRDNSKNTLYLQMNSLGAEDTAVYYCARGEGSPGNWFDPWGQGTLVTVSS
VL: DVVMTQSPGTLSLSPGERATLSCRASQSVPSSYLAWYQQKPGQAPRLLIYGASTRATGIPDRFSGSGSGTDFTLTISRLEPEDFAVYYCQHYDTSPRFGGGTKVDIK
B4: mAb 269 (antibody, V domains shown)
VH: QVQLVESGGGLIQPGGSLRLSCAASGLTVNRNYMSWIRQAPGKGLEWVSVIYSGGSTFYADSVKGRFTISRDNSKNTLSLQMNSLRAEDTAIYYCARDFYEGSFDIWGQGTMVTVSS
VL: AIQLTQSPSFLSASIGDRVTITCRASQGISSYLAWYQQKPGKAPKLLIYAASTLQSGVPSRFSGSGSGTEFTLTISSLQPEDFASYYCQQLNSYPAPVFGPGTKVDIK
B5: mAb 318 (antibody, V domains shown)
VH: QVQLVQSGPEVKKPGTSVKVSCKASGFTLTSSAMQWVRQARGQRLEWIGWIVVGSGNTNYAQKFQERVTITRDMSTSTAYMELSSLRSEDTAVYYCAAGRGYNSDFDYWGQGTLVTVSS
VL: AIRMTQSPGTLSLSPGERATLSCRASQSVSSSYLAWYQQRPGQAPRLLIYGTSSRATGIPDRFSGSGSGTDFTLTISRLEPEDFAVYYCQQYGYSVYTFGQGTKVDIK
B6: mAb 159 (antibody, V domains shown)
VH: EVQLVESGGGVVQPGRSLRLSCAASGFTFSSYGMHWVRQAPGKGLEWVALISYDGGNRYYADSVKGRFTISRDNSKNTLYLQMNRLRAEDTAMYYCAKDRDDGWDWYYFMDVWGKGTTVTVSS
VL: DIQLTQSPGTLSLSPGERATLSCRASQSISGNYLAWYQHKPGQAPRLLIYGASTRATGIPDRFSGSGSGTDFTLTISRLEPEDFAVYYCQQYGSSYTFGQGTKVEIK
B7: antibody 40, full-length IgG (antibody, V domains shown)
VH: QVQLVESGGGLVQPGGSLRLSCAVSGFTVSRNYMSWVRQAPGKGLEWVSLIYSGGSTFYADSVKGRFTISRDNSKNTLYLQMNSLRAEDTAVYYCARDLFHRSGYHDYWGQGTLVTVSS
VL: not shown
notes: also called mAb 40; 40 IgG
B8: Fab of antibody 40 (Fab, V domains shown)
VH: QVQLVESGGGLVQPGGSLRLSCAVSGFTVSRNYMSWVRQAPGKGLEWVSLIYSGGSTFYADSVKGRFTISRDNSKNTLYLQMNSLRAEDTAVYYCARDLFHRSGYHDYWGQGTLVTVSS
VL: not shown
notes: also called 40 Fab; Fab 40
B9: antibody 88, full-length IgG (antibody, V domains shown)
VH: QLQLQESGPGLVKPSQTLSLTCTVSGGSISSGSYNWTWIRQPAGKGLEWIGRIYNSGSTNYNPSLKSRVTISVDTSKNQLSLKVRSVTAADTAVYYCARHCSGGTCYPKYYYGMDVWGQGTTVTVSS
VL: QSALTQPPSVSEAPRQRVTISCSGSSSNIGNNAVNWYQQFPGKAPKLLIYYDDLLPSGVSDRFSGSKSGTSASLAISGVQSEDEADYYCAAWDDSLNVVVFGGGTKLTVL
notes: also called mAb 88; 88 IgG
B10: Fab of antibody 88 (Fab, V domains shown)
VH: QLQLQESGPGLVKPSQTLSLTCTVSGGSISSGSYNWTWIRQPAGKGLEWIGRIYNSGSTNYNPSLKSRVTISVDTSKNQLSLKVRSVTAADTAVYYCARHCSGGTCYPKYYYGMDVWGQGTTVTVSS
VL: QSALTQPPSVSEAPRQRVTISCSGSSSNIGNNAVNWYQQFPGKAPKLLIYYDDLLPSGVSDRFSGSKSGTSASLAISGVQSEDEADYYCAAWDDSLNVVVFGGGTKLTVL
notes: also called 88 Fab; Fab 88
B11: Fab of antibody 158 (Fab, V domains shown)
VH: EVQLLESGGDLIQPGGSLRLSCAASGVTVSSNYMSWVRQAPGKGLEWVSIIYPGGSTFYADSVKGRFTISRDNSKNTLYLQMHSLRAEDTAVYYCARDLGSGDMDVWGKGTTVTVSS
VL: DIVMTQSPSFLSASVGDRVTITCRASQGISSYLAWYQQKPGKAPKLLIQAASTLQSGVPSRFSGSGSGTEFTLTISSLQPEDFATYYCQQLNSYRYTFGQGTKVEIK
notes: also called 158 Fab; Fab 158
B12: Fab of antibody 316 (Fab, V domains shown)
VH: not shown
VL: QAVLTQPPSASGSPGQSVTISCTGTSSDVGGYNYVSWYQQHPGKAPKLMIYEVSKRPSGVPDRFSGSKSGNTASLTVSGLQAEDEADYYCSSYAGSNHWVFGGGTKLTVL
notes: also called 316 Fab; Fab 316
B13: antibody 150, full-length IgG (antibody, V domains shown)
VH: QVQLVESGGGLIQPGGSLRLSCAASGVTVSSNYMSWVRQAPGKGLEWVSIIYSGGTTYYADSVKGRFTISRDSSMNTLYLQMNSLRAEDTAVYYCARDLMVYGIDVWGQGTTVTVSS
VL: EIVMTQSPSSLSASVGDRVTITCRASQGISSYLAWYQQKPGKAPKLLIYAASTLQSGVPSRFSGSGSGTDFTLTISSLQPEDFATYYCQQLDSYPPGYTFGQGTKVDIK
B14: mAb 165 (antibody, V domains shown)
VH: QVQLVQSGPEVKKPGTSVKVSCKASGFTFTSSAVQWVRQARGQRLEWIGWIVVGSGNTNYAQKFQESVTITRDMSTSTAYMELSSLRSEDTAVYYCAAPHCIGGSCHDAFDIWGQGTMVTVSS
VL: DIVMTQSPGTLSLSPGERATLSCRASQSVRSSYLAWYQQKPGQAPRLLIYGASRRGTGIPDRFSGSGSGTDFTLTISRLEPEDFAVYYCQQYGSSPWTFGQGTKVEIK
B15: antibody 384, full-length IgG (antibody, V domains shown)
VH: EVQLVESGGGLVKPGESLRLSCAASGFTFSDYYMTWIRQAPGKGLEWVSYIRSSGHTIYYADSVKGRFTISRDNAKNSLYLQMNSLRVEDTAVYYCARGGVLRFLEWPLNAFDIWGQGTMVTVSS
VL: DIQLTQSPSSLSASVGDRVTITCRASQGISNYLAWYQQKPGKVPKLLIYAASTLQSGVPSRFSGSGSGTDFTLTISSLQPEDVATYYCQKYNNALGTFGQGTKVEIK
B16: Fab of antibody 222 (Fab, V domains shown)
VH: EVQLVESGGGLIQPGGSLRLSCAASGLTVSSNYMSWVRQAPGKGLEWVSVIYSGGSTFYADSVKGRFTISRDNSKNTLYLQMNSLGAEDTAVYYCARGEGSPGNWFDPWGQGTLVTVSS
VL: DVVMTQSPGTLSLSPGERATLSCRASQSVPSSYLAWYQQKPGQAPRLLIYGASTRATGIPDRFSGSGSGTDFTLTISRLEPEDFAVYYCQHYDTSPRFGGGTKVDIK
B17: Fab of antibody 269 (Fab, V domains shown)
VH: QVQLVESGGGLIQPGGSLRLSCAASGLTVNRNYMSWIRQAPGKGLEWVSVIYSGGSTFYADSVKGRFTISRDNSKNTLSLQMNSLRAEDTAIYYCARDFYEGSFDIWGQGTMVTVSS
VL: AIQLTQSPSFLSASIGDRVTITCRASQGISSYLAWYQQKPGKAPKLLIYAASTLQSGVPSRFSGSGSGTEFTLTISSLQPEDFASYYCQQLNSYPAPVFGPGTKVDIK
notes: also called 269 Fab; COVOX-269
B18: Fab of antibody 281 (Fab, V domains shown)
VH: QVQLVESGGGLVQPGGSLRLSCAASGFPFSIYWMSWVRQAPGKGLEWVANIKQDGSEKYYVDSVKGRFTISRDNAKNSLYLHMNSLRGEDTAVYYCASRYYDFRPEAWFDYWGQGTLVTVSS
VL: not shown
B19: Fab of antibody 318 (Fab, V domains shown)
VH: QVQLVQSGPEVKKPGTSVKVSCKASGFTLTSSAMQWVRQARGQRLEWIGWIVVGSGNTNYAQKFQERVTITRDMSTSTAYMELSSLRSEDTAVYYCAAGRGYNSDFDYWGQGTLVTVSS
VL: AIRMTQSPGTLSLSPGERATLSCRASQSVSSSYLAWYQQRPGQAPRLLIYGTSSRATGIPDRFSGSGSGTDFTLTISRLEPEDFAVYYCQQYGYSVYTFGQGTKVDIK
B20: Fab of antibody 398 (Fab, V domains shown)
VH: QVQLVESGGGLVQPGGSLRLSCAASGFTVSSNYMTWVRQAPGKGLEWVSVIYSGGSTYYADSVKGRFTISRDNSKNTLYLQMNSLRADDTAVYYCARDSTADYDFWSGYYVGAFHIWGQGTMVTVSS
VL: QTVLTQPASVSGSPGQSITISCTGTSSDVGGYNYVSWYQQHPGKAPKLMIYEVTKRPSGVPDRFSGSKSGNTASLTVSGLQAEDEADYYCSSYAGSNNWVFGGGTKLTVL

How the values were obtained:
[1] = molecular target: SARS-CoV-2 spike on whole virus (SARS-CoV-2/human/AUS/VIC01/2020, Victoria) (SARS-CoV-2, UniProt P0DTC2 14-1273); experiment: cell-based or functional assay
[2] = molecular target: T1, SARS-CoV-2 spike protein on authentic virus, strain SARS-CoV-2/human/AUS/VIC01/2020 (Victoria) (SARS-CoV-2, UniProt P0DTC2 14-1273); experiment: cell-based or functional assay
[3] = molecular target: T1, SARS-CoV-2 spike protein on authentic …; experiment: whole-virus capture ELISA, half-maximal binding
[4] = molecular target: T1, SARS-CoV-2 spike protein on authentic …; experiment: calculated from whole-virus ELISA binding and FRNT50
[5] = molecular target: T1, SARS-CoV-2 spike protein on authentic …; experiment: cell-based or functional assay; remark: listed apart in the source
[6] = molecular target: SARS-CoV-2 spike protein on authentic virus, strain B.1.1.7 (SARS-CoV-2, UniProt P0DTC2 14-1273); experiment: cell-based or functional assay
[7] = molecular target: T2, SARS-CoV-2 receptor binding domain with N501Y (SARS-CoV-2, UniProt P0DTC2 330-532); experiment: BLI, RBD immobilised on AR2G biosensor, 1:1 fit
T2 construct: range 330-532; also called RBD-N501Y; RBD N501Y

Row | Binder | Neutralisation IC50 (FRNT) [1] [µg/mL] | Neutralisation IC50 [2] [nM] | Kd [3] [nM] | % Occupancy [4] [%] | Kd [7] [nM] | other results
1 | B1 | 2 |  |  |  |  | 
2 | B2 | 0.033 |  |  |  |  | 
3 | B3 | 0.016 |  |  |  |  | 
4 | B4 | 0.036 |  |  |  |  | 
5 | B5 | 0.015 |  |  |  |  | 
6 | B6 | 0.005 |  |  |  |  | 
7 | B7 |  | 0.16 | 0.33 | 33.3 |  | IC50 (ug/ml), FRNT [5]: 0.026 µg/mL; IC50 (ug/ml), FRNT [6]: 0.035 µg/mL
8 | B8 |  | 45.7 | 1.23 | 97.4 | 0.97 | 
9 | B9 |  | 0.07 | 0.25 | 21.9 |  | IC50 (ug/ml), FRNT [5]: 0.033 µg/mL; IC50 (ug/ml), FRNT [6]: 0.058 µg/mL
10 | B10 |  | 6.95 | 1.21 | 85.2 | 0.65 | 
11 | B11 |  | 4.12 | 3.73 | 52.7 | 1.57 | 
12 | B12 |  | 27.6 | 8.76 | 74 | 2.81 | 
13 | B13 |  |  |  |  |  | B.1.1.7/Victoria Ratio of IC50 [6]: 12; IC50 (ug/ml), FRNT [6]: 0.139 µg/mL
14 | B14 | 0.021 |  |  |  |  | 
15 | B15 |  |  |  |  |  | IC50 (ug/ml), FRNT [6]: 0.005 µg/mL
16 | B16 |  |  |  |  | 0.39 | 
17 | B17 |  |  |  |  | 45.4 | 
18 | B18 |  |  |  |  | 4.05 | 
19 | B19 |  |  |  |  | 1.99 | 
20 | B20 |  |  |  |  | 1.18 | 
